Measured values published in PMC3485210.

Experiments:
[1] = tested on: G44P (Bacillus subtilis bacteriophage SPP1); experiment: EMSA; settings: EMSA: 50 mM Tris-HCl pH 7.5, 50 mM NaCl, 50 ng/ul BSA, 5% glycerol, 1 mM EDTA, 0.2 nM DNA, 37 C, 15 min (20 min in Fig 4 legend), 6% PAGE
[2] = molecular target: gene 44 product (G44P) of Bacillus subtilis bacteriophage SPP1 (Bacillus subtilis bacteriophage SPP1); experiment: SEC; FPLC gel filtration on Superdex 75 in buffer A (50 mM phosphate pH 7.5, 5% glycerol, 1 mM EDTA) with 1 M NaCl, 0.5 ml/min; 30 µg protein in 200 µl; mass from a standard curve of Kav versus log10 of molecular mass

Substance	K half [1] [nM]	further results
DL-D (D-loop)	5	
gene 44 product (G44P) of Bacillus subtilis bacteriophage SPP1 (enzyme)		stoichiometry N [2]: 2
CGCAAGCGACAGGAACCTCGAGGAATTCAACCACCGCTCAACTCAACTGCAGTCTAGACTCGAGGTTCCTGTCGCTTGCG (double strand) [80-bp dsDNA]		K half ([1]; complexes unstable in gel): 48 nM
CGCAAGCGACAGGAACCTCGAGAAGCTTCCGGTAGCAGCCTGAGCGGTGGTTGAATTCCTCGAGGTTCCTGTCGCTTGCG / CGCAAGCGACAGGAACCTCGAGGAATTCAACCACCGCTCAACTCAACTGCAGTCTAGACTCGAGGTTCCTGTCGCTTGCG / CGCAAGCGACAGGAACCTCGAGTCTAGACTGCAGTTGAGTCCTTGCTAGGACGGATCCCTCGAGGTTCCTGTCGCTTGCG / CGCAAGCGACAGGAACCTCGAGGGATCCGTCCTAGCAAGGGGCTGCTACCGGAAGCTTCTCGAGGTTCCTGTCGCTTGCG [HJ-J3]	10	
